Source: US7442519B2, “KCNQ2-15 potassium channel” (priority 2002, dated 2008)

Legend:
GSK-3β and PKA = assay: In vitro phosphorylation assay of GST-2E11 with recombinant GSK-3β kinase and PKA; assay type: biochemical; settings: LiCl added to the kination mix; signal negatively correlated with LiCl concentration
Protocol: Expression and purification of the GST-2E11 fusion protein were performed as described above. Beads with bound fusion protein corresponding to 1 ml of bacterial clear lysate were washed three times in NETN and one time with HMK buffer without DTT (20 mM Tris-HCl [pH 7.5], 120 mM NaCl, 12 mM MgCl2). Beads were resuspended in 240 μl of reaction mix (24 μl of 10×HMK Buffer with 20 mM DTT, 40 units of Protein Kinase A Catalytic Subunit [PKA from bovine heart, 250 units/vial, Sigma] in 40 mM DTT, 5 μl of 24 mM ATP and 207 μl of distilled water) and incubated for 30 min at room temperature. Beads were then washed three times in NETN buffer and one time in GSK-3β reaction buffer (20 mM Tris-HCl [pH 7.5], 10 mM MgCl2, 5 mM DTT) (New England Biolabs). Beads were then resuspended in 50 μl of reaction mix (5 μl of 10×GSK-3β reaction buffer, 1 μl of [^32P]γATP 10 mCi/ml, 50 U of recombinant GSK-3β[New England Biolabs], and distilled water for a final volume of 50 μl) and incubated at room temperature for 30 min. After three washes in NETN buffer, phosphorylated proteins were boiled in 2×Sample Buffer (125 mM Tris-HCl [pH 6.8], 4% SDS, 20% glycerol, 1.4 M β-Mercapto ethanol), resolved by 10% SDS-PAGE, and visualized by autoradiography.
In this phosphorylation assay, non-radiolabeled polypeptides to be tested are incubated in the presence of GSK-3β, PKA and radioactive ATP. […]

Xenopus laevis oocytes = assay: Electrophysiological analysis (two-electrode voltage clamp) of homotetrameric potassium channels; assay type: cell-based; settings: 0.4 ng of DNA injected
Protocol: The animal was anesthetized and pieces of the ovary were surgically removed and individual oocytes were dissected away in a saline solution (ND96) containing 96 mM NaCl, 2 mM KCl, 2 mM CaCl2, 2 mM MgCl2 and 5 mM HEPES at pH 7.4. Stage V and VI oocytes were treated at room temperanre for 2 h with collagenase type 1A (1 mg/ml) in the presence of 0.2 mg/ml trypsin inhibitor in saline solution to discard follicular cells. […] DNA corresponding to KCNQ2, 3H2 and 3H9 K+ channels were subcloned in PEKO vector in order to generate the respective cRNAS. cRNA concentrations were measured by absorbance at 260 nm. cRNA solutions were injected (about 50 nL/oocyte) using a pressure microinjector (Inject+matic, Geneve). Oocytes were then kept for 2-6 days in ND96 solution supplemented wirn 50 U/mL penicillin and 50 U/mL streptomycin.
In a 0.3 mL perfusion chamber, a single oocyte was impaled with two standard glass microelectrode (0.5-2 Mohm resistance) filled with 3M KCl and maintained under voltage clamp using a Dagan TEV200 amplifier system, USA. Electrical stimulations, data acquisition and analyses were performed using pClamp software (Axon Instruments, USA). […]

PP2A/Bγ = biological target: T1, PP2A/Bγ (Homo sapiens, UniProt Q9Y2T4, E66D/G293D/R253P); assay: Solid phase overlay assay with radiolabeled GST-PPP2R2C probe; assay type: binding; settings: 100 ng, 10 ng and 0.1 ng loaded; band intensity proportional to loaded quantity
T1 construct: The full-length coding region of the PPP2R2C gene, which encodes the PP2A/Bγ subunit; expressed in transfected cells; host or cells: Saccharomyces cerevisiae (AH109 / Y184 mating partners)
T1 sequence (Q9Y2T4 1-447 E66D/R253P/G293D): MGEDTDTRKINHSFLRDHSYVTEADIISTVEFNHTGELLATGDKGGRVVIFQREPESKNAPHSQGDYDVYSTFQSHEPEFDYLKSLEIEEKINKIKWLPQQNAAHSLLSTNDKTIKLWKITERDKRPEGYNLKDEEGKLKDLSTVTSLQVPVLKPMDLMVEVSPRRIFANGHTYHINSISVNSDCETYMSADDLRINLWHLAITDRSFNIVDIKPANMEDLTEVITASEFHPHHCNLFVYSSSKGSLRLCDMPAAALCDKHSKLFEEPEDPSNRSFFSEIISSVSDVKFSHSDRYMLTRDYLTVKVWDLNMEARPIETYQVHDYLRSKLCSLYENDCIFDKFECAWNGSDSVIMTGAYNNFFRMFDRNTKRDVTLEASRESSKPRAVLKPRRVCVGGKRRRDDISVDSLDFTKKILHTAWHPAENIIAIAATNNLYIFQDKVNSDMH
Protocol: Solid phase overlay assays were performed by adapting the method described by Kaelin and collaborators (Kaelin et al., 1992, Cell, 70:351-364). 100 ng, 10 ng and 0.1 ng of GST and GST-2E11 recombinant proteins were resolved by 9% SDS-PAGE and were transferred by electroblotting onto nitrocellulose membrane (nitrocellulose transfer membrane Protran BA 83, Schleicher and Schuell). The membrane were then blocked in HBB buffer (25 mM Hepes-KOH [pH 7.7], 25 mM NaCl, 5 mM MgCl2) with 5% (w/v) non-fat dry milk, 1 mM DTT, 0.05% Nonidet P-40 for 1 hr at room temperature. The binding reaction was carried out at room temperature in Hyb75 buffer (20 mM Hepes [pH 7.7], 75 mM KCl, 2.5 mM MgCl2, 0.1 mM EDTA, 0.05% Nonidet P-40) with 1% (w/v) non-fat dry milk, 1 mM DTT, 1 mM PMSF and 3.5 10^5dpm of a [^32P]-γATP GST-PPP2R2C radiolabeled recombinant protein used as a probe. After 4.5 hr of incubation, the membrane was washed with Hyb75 buffer, 1 mM DTT, 1% (w/v) non-fat dry milk three times for 15 min at room temperature. The blots were analyzed by autoradiography.
This experiment was performed to validate the interaction between KCNQ2-15b polypeptides and PP2A/Bγ. In this experiment, the PP2A/Bγ subunit was radiolabeled but not the proteins present on the nitrocellulose membrane. […] Furthermore, the intensity of the bands was proportional to the quantity of loaded GST-2E11. […]

Molecule: [Cl-].[Li+] [LiCl]
- intensity of the phosphorylated GST-2E11 band (GSK-3β and PKA): decreased

B1: KCNQ2-15bx: polypeptide of SEQ ID NO: 2, novel KCNQ2 splice variant (protein, listed as Homo sapiens)
chain: MVQKSRNGGVYPGPSGEKKLKVGFVGLDPGAPDSTRDGALLIAGSEAPKRGSILSKPRAGGAGAGKPPKRNAFYRKLQNFLYNVLERPRGWAFIYHAYVFLLVFSCLVLSVFSTIKEYEKSSEGALYILEIVTIVVFGVEYFVRIWAAGCCCRYRGWRGRLKFARKPFCVIDIMVLIASIAVLAAGSQGNVFATSALRSLRFLQILRMIRMDRRGGTWKLLGSVVYAHSKELVTAWYIGFLCLILASFLVYLAEKGENDHFDTYADALWWGLITLTTIGYGDKYPQTWNGRLLAATFTLIGVSFFALPAGILGSGFALKVQEQHRQKHFEKRRNPAAGLIQSAWRFYATNLSRTDLHSTWQYYERTVTVPMYSSQTQTYGASRLIPPLNQLELLRNLKSKSGLAFRKDPPPEPSPSKGSPCRGPLCGCCPGRSSQKVSLKDRVFSSPRGVAAKGKGSPQAQTVRRSPSADQSLEDSPSKVPKSWSFGDRSRARQAFRIKGAASRQNSEEASLPGEDIVDDKSCPCEFVTEDLTPGLKVSIRAVCVMRFLVSKRKFKESLRPYDVMDVIEQYSAGHLDMLSRIKSLQSRQEPRLPVQQGTRTGWASGTKPTVAHGGSAGGVWAGPPPHPRRPLSASVVSSQSLF
- intensity of the M-current generated by the homotetrameric potassium channel (Xenopus laevis oocytes): about 800 nA

B2: GST-2E11: fusion protein between a KCNQ2-15b polypeptide comprising exons 13, 14 and 15b and GST (protein)
chain: SSQKVSLKDRVFSSPRGVAAKGKGSPQAQTVRRSPSADQSLEDSPSKVPKSWSFGDRSRARQAFRIKGAASRQNSEEASLPGEDIVDDKSCPCEFVTEDLTPGLKVSIRAVCVMRFLVSKRKFKESLRPYDVMDVIEQYSAGHLDMLSRIKSLQSRQEPRLPVQQGTRTGWASGTKPTVAHGGSAGGVWAGPPPHPRRPLSASVVSSQSLF
modifications: left off: a dimerising Fc or GST
notes: fusion protein between a KCNQ2-15b polypeptide comprising exons 13, 14 and 15b and GST
- interaction with PP2A/Bγ (band by autoradiography) (PP2A/Bγ): interacts

B3: KCNQ2-15by: polypeptide of SEQ ID NO: 4, novel KCNQ2 splice variant (protein, listed as Homo sapiens)
chain: MVQKSRNGGVYPGPSGEKKLKVGFVGLDPGAPDSTRDGALLIAGSEAPKRGSILSKPRAGGAGAGKPPKRNAFYRKLQNFLYNVLERPRGWAFIYHAYVFLLVFSCLVLSVFSTIKEYEKSSEGALYILEIVTIVVFGVEYFVRIWAAGCCCRYRGWRGRLKFARKPFCVIDIMVLIASIAVLAAGSQGNVFATSALRSLRFLQILRMIRMDRRGGTWKLLGSVVYAHSKELVTAWYIGFLCLILASFLVYLAEKGENDHFDTYADALWWGLITLTTIGYGDKYPQTWNGRLLAATFTLIGVSFFALPAGILGSGFALKVQEQHRQKHFEKRRNPAAGLIQSAWRFYATNLSRTDLHSTWQYYERTVTVPMYSSQTQTYGASRLIPPLNQLELLRNLKSKSGLAFRKDPPPEPSPSQKVSLKDRVFSSPRGVAAKGKGSPQAQTVRRSPSADQSLEDSPSKVPKSWSFGDRSRARQAFRIKGAASRQNSEEASLPGEDIVDDKSCPCEFVTEDLTPGLKVSIRAVCVMRFLVSKRKFKESLRPYDVMDVIEQYSAGHLDMLSRIKSLQSRQEPRLPVQQGTRTGWASGTKPTVAHGGSAGGVWAGPPPHPRRPLSASVVSSQSLF
- intensity of the M-current generated by the homotetrameric potassium channel (Xenopus laevis oocytes): about 700 nA
